From patent publication US20140087995A1 (published 2014)
Numbered stars: 1 amine (or outer) side, 2 acyl side, 3 side chain; on linkers, the order of the positions; unused ones are H or OH. Bridge positions count the residues as written; N and C are the ends. Side chains are listed from the residue outwards. Ends that are not written are not given here. * marks the point of attachment. C20 diacid = O=C(O)CCCCCCCCCCCCCCCCCCC(=O)*; γGlu = O=C(O)[C@H](CCC(=O)[*:2])N[*:1]

Legend:
rat calcitonin receptor [1] = target: T1, rat calcitonin receptor (rat, UniProt P32214 25-516); test: ratio IC50 rat calcitonin receptor / IC50 rat amylin receptor (reference)
T1 construct: whole, on cells; Membranes of transiently transfected BHK tk'ts 13 cells (Assay VIII); also called rCTR
T1 sequence (looked up): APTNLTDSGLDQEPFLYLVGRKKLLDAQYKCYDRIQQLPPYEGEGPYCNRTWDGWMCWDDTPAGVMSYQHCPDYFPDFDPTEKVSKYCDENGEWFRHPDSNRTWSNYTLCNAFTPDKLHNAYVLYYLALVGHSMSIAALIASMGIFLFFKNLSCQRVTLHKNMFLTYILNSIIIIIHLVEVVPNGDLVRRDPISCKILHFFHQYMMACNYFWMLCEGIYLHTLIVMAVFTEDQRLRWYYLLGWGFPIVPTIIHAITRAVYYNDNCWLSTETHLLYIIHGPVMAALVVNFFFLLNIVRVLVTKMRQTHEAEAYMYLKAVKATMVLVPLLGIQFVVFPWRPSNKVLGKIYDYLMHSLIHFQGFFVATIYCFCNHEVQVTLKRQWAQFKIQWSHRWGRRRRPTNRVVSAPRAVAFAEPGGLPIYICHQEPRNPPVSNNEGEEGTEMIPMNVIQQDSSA

rat calcitonin receptor [2] = target: T1, rat calcitonin receptor; test: SPA competition with 125I-calcitonin, membranes of BHK cells with rat calcitonin receptor (Assay VIII)
[3] = target: T2, rat amylin receptor (rat calcitonin receptor + rat RAMP 3) (rat, UniProt P32214 25-516; Q9JJ73 23-147); test: SPA competition with 125I-rat amylin, membranes of BHK cells with rat calcitonin receptor + rat RAMP3 (Assay VI)
T2 construct: whole, on cells; Membranes of transiently transfected BHK tk'ts 13 cells (Assay VI); also called rAmylin-R; rat amylin 3(a) receptor
T2 sequence (looked up) 1: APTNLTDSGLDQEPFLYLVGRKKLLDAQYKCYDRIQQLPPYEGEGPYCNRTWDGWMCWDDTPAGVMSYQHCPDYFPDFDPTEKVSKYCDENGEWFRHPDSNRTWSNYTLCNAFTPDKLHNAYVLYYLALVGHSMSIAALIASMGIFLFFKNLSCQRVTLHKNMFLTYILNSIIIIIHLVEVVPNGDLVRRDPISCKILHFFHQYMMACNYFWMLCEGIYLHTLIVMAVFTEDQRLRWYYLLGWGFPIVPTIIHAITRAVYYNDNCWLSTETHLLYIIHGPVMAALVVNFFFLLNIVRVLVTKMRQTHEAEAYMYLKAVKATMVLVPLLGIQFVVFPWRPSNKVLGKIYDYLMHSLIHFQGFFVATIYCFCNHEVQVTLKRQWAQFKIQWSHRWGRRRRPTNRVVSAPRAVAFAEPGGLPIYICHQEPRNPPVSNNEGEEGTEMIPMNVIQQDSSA
T2 sequence (looked up) 2: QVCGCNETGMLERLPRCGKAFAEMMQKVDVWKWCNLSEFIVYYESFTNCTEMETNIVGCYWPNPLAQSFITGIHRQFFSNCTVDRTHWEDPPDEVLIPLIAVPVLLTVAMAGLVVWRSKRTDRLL

[4] = target: T3, human calcitonin receptor (human, UniProt P30988 25-474); test: ratio IC50 human calcitonin receptor / IC50 human amylin receptor (reference)
T3 construct: whole, on cells; Membranes of a stably transfected BHK cell line (Assay VII); also called hCTR; hCT
T3 sequence (looked up): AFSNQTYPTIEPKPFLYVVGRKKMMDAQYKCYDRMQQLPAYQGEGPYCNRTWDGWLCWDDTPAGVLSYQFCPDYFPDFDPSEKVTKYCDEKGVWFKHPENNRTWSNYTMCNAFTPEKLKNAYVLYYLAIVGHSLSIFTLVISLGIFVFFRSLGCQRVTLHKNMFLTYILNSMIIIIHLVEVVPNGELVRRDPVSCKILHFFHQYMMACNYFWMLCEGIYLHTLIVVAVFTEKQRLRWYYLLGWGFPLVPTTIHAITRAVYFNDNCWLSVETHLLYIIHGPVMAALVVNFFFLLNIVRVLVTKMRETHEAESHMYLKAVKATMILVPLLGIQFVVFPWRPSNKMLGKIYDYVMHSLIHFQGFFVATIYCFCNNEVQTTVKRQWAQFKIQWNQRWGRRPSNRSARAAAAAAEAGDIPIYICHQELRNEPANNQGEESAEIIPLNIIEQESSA
Procedure: The resulting pellet was resuspended, homogenized and centrifuged (20.000 rpm, 15 min) in a buffer containing 20 mM Na-HEPES and 0.1 mM EDTA (pH 7.4, buffer 2). The resulting pellet was resuspended in buffer 2 and protein concentration was measured (BCA protein Assay, Pierce). The homogenate was kept cold during the whole procedure. The membranes were kept at −80° C. until use. The assay was performed in a 384 well Optiplate (PerkinElmer) in a total volume of 40 ul. Membranes were mixed with SPA beads. Final concentration of membranes 35 ng/μL final and SPA beads was 0.05 mg/well. Test-compounds were dissolved in DMSO and further diluted in assay buffer (50 mM Hepes, pH 7.4, 1 mM CaCl2, 5 mM MgCl₂, 0.1% OA and 0.02% Tween20). […] The final mixture was incubated with shaking at 400 rpm for 120 min at 25° C. prior to centrifugation (1500 rpm, 10 min). Samples were analyzed on TopCounter™ (Packard). The IC₅₀ was calculated using (one site binding competition analysis) GraphPad Prism5 as a measure of receptor affinity.
Membranes were prepared in the following way; the cells were rinsed with PBS and incubated with Versene for approximately 5 min before harvesting. The cells were flushed with PBS and the cell-suspension was centrifuged for 5 min at 1000 rpm. Cells were homogenized (Ultrathurrax) in a buffer containing 20 mM Na-HEPES and 10 mM EDTA (pH 7.4) and centrifuged at 20.000 rpm for 15 min. The resulting pellet was resuspended, homogenized and centrifuged (20.000 rpm, 15 min) in a buffer containing 20 mM Na-HEPES and 0.1 mM EDTA (pH 7.4, buffer 2). The resulting pellet was resuspended in buffer 2 and protein concentration was measured (BCA protein Assay, Pierce). The homogenate was kept cold during the whole procedure. The membranes were kept at −80° C. until use. Assay was performed in a 384 well Optiplate (PerkinElmer) in a total volume of 40 ul. Membranes were mixed with SPA beads.

- Ratio rCT/rAmylin binding (rat calcitonin receptor [1]): 45.6
- IC50 (rat calcitonin receptor [2]): 94.5 nM
- IC50 [3]: 2.07 nM
- Ratio hCT/hAmylin binding [4]: 35.6
B1: N^ε1-[(4S)-4-carboxy-4-[[(4S)-4-carboxy-4-(19-carboxynonadecanoylamino)butanoyl]amino]butanoyl]-[Glu14,Arg17,Pro21,Pro27,His34]-h-amylin (peptide)
peptide: K([γGlu-γGlu-C20 diacid])CNTATCATQRLAEFLRHSSPNFGAIPSSTNVGHNTY-NH2
modifications: disulfide 2-7; N-terminus assumed
SMILES: CC[C@H](C)[C@H](NC(=O)[C@H](C)NC(=O)CNC(=O)[C@H](Cc1ccccc1)NC(=O)[C@H](CC(N)=O)NC(=O)[C@@H]1CCCN1C(=O)[C@H](CO)NC(=O)[C@H](CO)NC(=O)[C@H](Cc1c[nH]cn1)NC(=O)[C@H](CCCNC(=N)N)NC(=O)[C@H](CC(C)C)NC(=O)[C@H](Cc1ccccc1)NC(=O)[C@H](CCC(=O)O)NC(=O)[C@H](C)NC(=O)[C@H](CC(C)C)NC(=O)[C@H](CCCNC(=N)N)NC(=O)[C@H](CCC(N)=O)NC(=O)[C@@H](NC(=O)[C@H](C)NC(=O)[C@@H]1CSSC[C@H](NC(=O)[C@@H](N)CCCCNC(=O)CC[C@H](NC(=O)CC[C@H](NC(=O)CCCCCCCCCCCCCCCCCCC(=O)O)C(=O)O)C(=O)O)C(=O)N[C@@H](CC(N)=O)C(=O)N[C@@H]([C@@H](C)O)C(=O)N[C@@H](C)C(=O)N[C@@H]([C@@H](C)O)C(=O)N1)[C@@H](C)O)C(=O)N1CCC[C@H]1C(=O)N[C@@H](CO)C(=O)N[C@@H](CO)C(=O)N[C@H](C(=O)N[C@@H](CC(N)=O)C(=O)N[C@H](C(=O)NCC(=O)N[C@@H](Cc1c[nH]cn1)C(=O)N[C@@H](CC(N)=O)C(=O)N[C@H](C(=O)N[C@@H](Cc1ccc(O)cc1)C(N)=O)[C@@H](C)O)C(C)C)[C@@H](C)O
notes: also called compound 87
